Measured values: patent US20120058906A1 (published 2012)
Changes are numbered by the printed parent chain.

Tests used:
[1] = target: T1, Recombinant Human DLL4 (delta-like protein 4) (human, UniProt Q9NR61 27-524); test: SPR, Fab on recombinant human DLL4; standard deviation in parentheses
T1 construct: Bought (R&D Systems Cat#1506-D4/CF); also called rHuman DLL4

[2] = target: T2, rHuman IGF-1 sR, (IGF-1 sR), CF (R&D Systems Cat#391-GR) (human, UniProt P08069 31-932); test: MSD ECL multi-spot plate; Fab 1570 nM; blank spot 866
T2 construct: also called insulin-like growth factor-1 soluble receptor; IGF-R1

[3] = target: T3, rHuman P-Cadherin/Fc Chimera, CF (R&D Systems Cat#861-PC) (human, UniProt P22223 108-654); test: as above
T3 construct: Fc part of the bought chimera not given

[4] = target: T4, rHuman Erythropoietin R/Fc Chimera, CF (R&D Systems Cat#963-ER) (human, UniProt P19235 25-250); test: as above
T4 construct: also called EPO R/Fc; Epo R; Fc part of the bought chimera not given
T4 sequence: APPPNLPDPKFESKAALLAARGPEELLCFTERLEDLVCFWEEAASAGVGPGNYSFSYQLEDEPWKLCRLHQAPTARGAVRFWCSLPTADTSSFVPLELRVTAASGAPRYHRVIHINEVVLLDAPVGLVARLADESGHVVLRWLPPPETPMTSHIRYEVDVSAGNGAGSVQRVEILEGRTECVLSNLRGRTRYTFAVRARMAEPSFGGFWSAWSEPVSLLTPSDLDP

[5] = target: T5, rHuman ErbB2/Fc Chimera, CF (R&D Systems Cat#1129-ER) (human, UniProt P04626 23-652); test: as above
T5 construct: also called HER2/neu; human epidermal growth factor 2 receptor; Fc part of the bought chimera not given

[6] = target: T6, rHuman HGF R/c-MET/Fc Chimera, CF (R&D Systems Cat#358-MT/CF) (human, UniProt P08581 25-932); test: as above
T6 construct: also called HGF R/Fc; hepatocyte growth factor receptor; Fc part of the bought chimera not given

[7] = target: T7, rHuman CD44/Fc Chimera, CF (R&D Systems Cat#3660-CD) (human, UniProt P16070 21-220); test: as above
T7 construct: Fc part of the bought chimera not given

[8] = target: T2, rHuman IGF-1 sR, (IGF-1 sR), CF (R&D …); test: MSD ECL multi-spot plate; Fab 24.5 nM; blank spot 149
[9] = target: T3, rHuman P-Cadherin/Fc Chimera, CF (R&D …); test: as above
[10] = target: T4, rHuman Erythropoietin R/Fc Chimera, CF …; test: as above
[11] = target: T5, rHuman ErbB2/Fc Chimera, CF (R&D …); test: as above
[12] = target: T6, rHuman HGF R/c-MET/Fc Chimera, CF (R&D …); test: as above
[13] = target: T7, rHuman CD44/Fc Chimera, CF (R&D Systems …); test: as above
[14] = target: T2, rHuman IGF-1 sR, (IGF-1 sR), CF (R&D …); test: MSD ECL multi-spot plate; Fab 98.1 nM; blank spot 210
[15] = target: T3, rHuman P-Cadherin/Fc Chimera, CF (R&D …); test: as above
[16] = target: T4, rHuman Erythropoietin R/Fc Chimera, CF …; test: as above
[17] = target: T5, rHuman ErbB2/Fc Chimera, CF (R&D …); test: as above
[18] = target: T6, rHuman HGF R/c-MET/Fc Chimera, CF (R&D …); test: as above
[19] = target: T7, rHuman CD44/Fc Chimera, CF (R&D Systems …); test: as above
[20] = target: T2, rHuman IGF-1 sR, (IGF-1 sR), CF (R&D …); test: MSD ECL multi-spot plate; Fab 392.5 nM; blank spot 338
[21] = target: T3, rHuman P-Cadherin/Fc Chimera, CF (R&D …); test: as above
[22] = target: T4, rHuman Erythropoietin R/Fc Chimera, CF …; test: as above
[23] = target: T5, rHuman ErbB2/Fc Chimera, CF (R&D …); test: as above
[24] = target: T6, rHuman HGF R/c-MET/Fc Chimera, CF (R&D …); test: as above
[25] = target: T7, rHuman CD44/Fc Chimera, CF (R&D Systems …); test: as above
[26] = target: T8, Recombinant Human DLL4 (R&D Systems, Cat#1506-D4/CF) (human, UniProt Q9NR61 27-529); test: Surface Plasmon Resonance, recombinant human DLL4
T8 construct: Bought protein; also called rHuman DLL4; delta-like protein 4

B1: Fab VH5-51_IGHD5-18*01>3_IGHJ4*01 & V3-4_IGLJ1*01 (Fab, V domains shown)
VH: EVQLVQSGAEVKKPGESLKISCKGSGYSFTSYWIGWVRQMPGKGLEWMGIIYPGDSDTRYSPSFQGQVTISADKSISTAYLQWSSLKASDTAMYYCARRGYSYGYDYFDYWGQGTLVTVSS
VL: QTVVTQEPSFSVSPGGTVTLTCGLSSGSVSTSYYPSWYQQTPGQAPRTLIYSTNTRSSGVPDRFSGSILGNKAALTITGAQADDESDYYCVLYMGSGISYVFGTGTKVTVL
notes: Germline Fab from E. coli; VH joined to CH1 with Flag/His tags (Plasmid A), VL to lambda constant region (Plasmid E)
B1 was tested, and the Kd [1] was 4800 nM.

B2: Fab VH1-46_IGHD3-10*01_IGHJ4*01 & O1_IGKJ1*01 (Fab, V domains shown)
VH: QVQLVQSGAEVKKPGASVKVSCKASGYTFTSYYMHWVRQAPGQGLEWMGIINPSGGSTSYAQKFQGRVTMTRDTSTSTVYMELSSLRSEDTAVYYCAREYYYGSGSYYNDYFDYWGQGTLVTVSS
VL: DIVMTQTPLSLPVTPGEPASISCRSSQSLLDSDDGNTYLDWYLQKPGQSPQLLIYTLSYRASGVPDRFSGSGSGTDFTLKISRVEAEDVGVYYCMQRIEFPSWTFGQGTKVEIK
notes: It was expressed in E. coli as a Fab; The heavy chain carries CH1 from Plasmid A with Flag and His tags; The light chain carries the kappa constant region from Plasmid C
For B2, the ECL signal [2] was 1430 ECL signal, the ECL signal [3] was 1790 ECL signal and the ECL signal [4] was 6120 ECL signal. The ECL signal [5] was 1260 ECL signal, the ECL signal [6] was 1640 ECL signal and the ECL signal [7] was 1380 ECL signal. It also gave an ECL signal [8] of 239 ECL signal, an ECL signal [9] of 257 ECL signal and an ECL signal [10] of 4530 ECL signal. The ECL signal [11] was 241 ECL signal, the ECL signal [12] was 211 ECL signal and the ECL signal [13] was 267 ECL signal. For the same binder, the ECL signal [14] was 309 ECL signal, the ECL signal [15] was 347 ECL signal and the ECL signal [16] was 5630 ECL signal. The ECL signal [17] was 247 ECL signal, the ECL signal [18] was 335 ECL signal and the ECL signal [19] was 265 ECL signal. The ECL signal [20] was 466 ECL signal, the ECL signal [21] was 459 ECL signal and the ECL signal [22] was 5860 ECL signal. It also gave an ECL signal [23] of 539 ECL signal, an ECL signal [24] of 581 ECL signal and an ECL signal [25] of 498 ECL signal.

B3: Fab VH1-46_IGHD3-10*01_IGHJ4*01 & L12_IGKJ1*01 (Fab, V domains shown)
VH: B2 VH
VL: not shown
In the case of B3, the Kd [1] is reported as 500 nM, the koff [1] is reported as 0.29 s⁻¹ and the kon [1] is reported as 500000 M⁻¹ s⁻¹.

B4: Fab VH1-46_IGHD6-6*01_IGHJ1*01 & L6_IGKJ1*01 (Fab, V domains shown)
VH: QVQLVQSGAEVKKPGASVKVSCKASGYTFTSYYMHWVRQAPGQGLEWMGIINPSGGSTSYAQKFQGRVTMTRDTSTSTVYMELSSLRSEDTAVYYCAREEYSSSSAEYFQHWGQGTLVTVSS
VL: not shown
notes: Germline Fab from E. coli; VH joined to CH1 with Flag/His tags (Plasmid A), VL to kappa constant region (Plasmid C)
With B4 the Kd [1] was 730 nM, the koff [1] was 0.101 s⁻¹ and the kon [1] was 163000 M⁻¹ s⁻¹.

B5: Fab VH1-46_IGHD6-6*01_IGHJ1*01_S102A_S103P_S104F & L6_IGKJ1*01 (Fab, V domains shown)
VH: B4 VH with S102A, S103P, S104F
VL: not shown
notes: Modified anti-DLL4 Fab; kappa Plasmid C)
B5 was tested, and the Kd [1] was 122 nM, the koff [1] was 0.0492 s⁻¹ and the kon [1] was 405000 M⁻¹ s⁻¹.

B6: Fab VH1-46_IGHD6-6*01_IGHJ1*01_S102A_S103P_S104F_H111Y & L6_IGKJ1*01 (Fab, V domains shown)
VH: B4 VH with S102A, S103P, S104F, H111Y
VL: not shown
notes: as for B5
B6 gave a Kd [1] of 93.1 nM, a koff [1] of 0.0317 s⁻¹ and a kon [1] of 340000 M⁻¹ s⁻¹.

B7: Fab VH1-46_IGHD6-6*01>1_IGHJ1*01_S104F & L6_IGKJ1*01 (Fab, V domains shown)
VH: B4 VH with S104F
VL: not shown
notes: as for B5
With B7 the Kd [1] was 380 nM, the koff [1] was 0.19 s⁻¹ and the kon [1] was 500000 M⁻¹ s⁻¹.

B8: Fab VH1-46_IGHD6-6*01_IGHJ1*01_S102A_S103P_S104F_H111F & L6_IGKJ1*01 (Fab, V domains shown)
VH: B4 VH with S102A, S103P, S104F, H111F
VL: not shown
notes: Modified Fab
In the case of B8, the Kd [26] is reported as 70.6 nM.

B9: Fab VH1-46_IGHD6-6*01_IGHJ1*01_S102A_S103P_S104F_H111F & L6_IGKJ1*01 (Fab, V domains shown)
VH: B4 VH with S102A, S103P, S104F, H111F
VL: not shown
notes: as for B5
B9 was tested, and the Kd [1] was 70.6 nM, the koff [1] was 0.03 s⁻¹ and the kon [1] was 425000 M⁻¹ s⁻¹.

B10: Fab VH1-46_IGHD6-6*01>1_IGHJ1*01_S104F & L6_IGKJ1*01 (Fab, V domains shown)
VH: B4 VH with S104F
VL: not shown
notes: Modified Fab
B10 showed a Kd [26] of 388 nM.

B11: Fab VH1-46_IGHD6-6*01_IGHJ1*01_S102A_S103P_S104F & L6_IGKJ1*01_S31K (Fab, V domains shown)
VH: B4 VH with S102A, S103P, S104F
VL: EIVLTQSPATLSLSPGERATLSCRASQSVSKYLAWYQQKPGQAPRLLIYDASNRATGIPARFSGSGSGTDFTLTISSLEPEDFAVYYCQQRSNWPPWTFGQGTKVEIKR
notes: Modified anti-DLL4 Fab
With B11 the Kd [1] was 112 nM, the koff [1] was 0.0392 s⁻¹ and the kon [1] was 350000 M⁻¹ s⁻¹.

B12: Fab VH6-1_IGHD3-3*01_IGHJ4*01 & V4-3_IGLJ4*01 (Fab, V domains shown)
VH: QVQLQQSGPGLVKPSQTLSLTCAISGDSVSSNSAAWNWIRQSPSRGLEWLGRTYYRSKWYNDYAVSVKSRITINPDTSKNQFSLQLNSVTPEDTAVYYCAREYYDFWSGYYTDYFDYWGQGTLVTVSS
VL: QPVLTQPTSLSASPGASARLTCTLRSGINLGSYRIFWYQQKPESPPRYLLSYYSDSSKHQGSGVPSRFSGSKDASSNAGILVISGLQSEDEADYYCMIWHSSASFVFGGGTQLIIL
notes: as for B1
In the case of B12, the Kd [1] is reported as 38000 nM.

B13: Fab VH6-1_IGHD3-3*01_IGHJ4*01 & V4-3_IGLJ4*01 (Fab, V domains shown)
VH: B12 VH
VL: B12 VL
notes: Fab from E. coli; VH joined to CH1 with Flag and His tags (Plasmid A), VL to lambda CL (Plasmid E)
B13 was tested, and the Kd [26] was 38000 nM.
